This passage reports response results from publication PMC6744581 (2019).

The chains are these.
B1: GFP-RhoBTB1 [human] / myc-ROCK1^1–727 [human] (parent complex)
chain 1: MDADMDYERPNVETIKCVVVGDNAVGKTRLICARACNTTLTQYQLLATHVPTVWAIDQYRVCQEVLERSRDVVDEVSVSLRLWDTFGDHHKDRRFAYGRSDVVVLCFSIANPNSLNHVKSMWYPEIKHFCPRTPVILVGCQLDLRYADLEAVNRARRPLARPIKRGDILPPEKGREVAKELGLPYYETSVFDQFGIKDVFDNAIRAALISRRHLQFWKSHLKKVQKPLLQAPFLPPKAPPPVIKIPECPSMGTNEAACLLDNPLCADVLFILQDQEHIFAHRIYLATSSSKFYDLFLMECEESPNGSEGACEKEKQSRDFQGRILSVDPEEEREEGPPRIPQADQWKSSNKSLVEALGLEAEGAVPETQTLTGWSKGFIGMHREMQVNPISKRMGPMTVVRMDASVQPGPFRTLLQFLYTGQLDEKEKDLVGLAQIAEVLEMFDLRMMVENIMNKEAFMNQEITKAFHVRKANRIKECLSKGTFSDVTFKLDDGAISAHKPLLICSCEWMAAMFGGSFVESANSEVYLPNINKISMQAVLDYLYTKQLSPNLDLDPLELIALANRFCLPHLVALAEQHAVQELTKAATSGVGIDGEVLSYLELAQFHNAHQLAAWCLHHICTNYNSVCSKFRKEIKSKSADNQEYFERHRWPPVWYLKEEDHYQRVKREREKEDIALNKHRSRRKWCFWNSSPAVA
chain 2: MSTGDSFETRFEKMDNLLRDPKSEVNSDCLLDGLDALVYDLDFPALRKNKNIDNFLSRYKDTINKIRDLRMKAEDYEVVKVIGRGAFGEVQLVRHKSTRKVYAMKLLSKFEMIKRSDSAFFWEERDIMAFANSPWVVQLFYAFQDDRYLYMVMEYMPGGDLVNLMSNYDVPEKWARFYTAEVVLALDAIHSMGFIHRDVKPDNMLLDKSGHLKLADFGTCMKMNKEGMVRCDTAVGTPDYISPEVLKSQGGDGYYGRECDWWSVGVFLYEMLVGDTPFYADSLVGTYSKIMNHKNSLTFPDDNDISKEAKNLICAFLTDREVRLGRNGVEEIKRHLFFKNDQWAWETLRDTVAPVVPDLSSDIDTSNFDDLEEDKGEEETFPIPKAFVGNQLPFVGFTYYSNRRYLSSANPNDNRTSSNADKSLQESLQKTIYKLEEQLHNEMQLKDEMEQKCRTSNIKLDKIMKELDEEGNQRRNLESTVSQIEKEKMLLQHRINEYQRKAEQENEKRRNVENEVSTLKDQLEDLKKVSQNSQLANEKLSQLQKQLEEANDLLRTESDTAVRLRKSHTEMSKSISQLESLNRELQERNRILENSKSQTDKDYYQLQAILEAERRDRGHDSEMIGDLQARITSLQEEVKHLKHNLEKVEGERKEAQDMLNHSEKEKNNLEIDLNYKLKSLQQRLEQEVNEHKVTKARLTDKHQSIEEAKSVAMCEMEKKLKEEREAR

Variants of B1 are the subject of one experiment. Kind of experiment: co-immunoprecipitation (GFP-trap) with band density quantification; COS7 cells, 24 h after transfection; three independent experiments; parent: 1.1; read off a plot.
As to chain 1 R60A, chain 1 C62A, chain 1 E64A, the response was ~1.1 relative value myc IP/GFP IP.

On to chain 1 E64A, chain 1 K197A, for which the response is ~2 relative value myc IP/GFP IP.

For chain 1 E64A, chain 1 K197A, chain 1 D198A, the response is ~1.2 relative value myc IP/GFP IP.

On to chain 1 E64A, for which the response was ~1.5 relative value myc IP/GFP IP.

The variants in a further experiment derive from B1. Kind of experiment: co-immunoprecipitation (GFP-trap) with band density quantification; COS7 cells, 24 h after transfection; five independent experiments; parent: 0.52; read off a plot.
Consider chain 1 E64A, chain 1 K197A, for which the response was ~1.4 relative value myc IP/GFP IP.

chain 1 K197A: the response was ~0.48 relative value myc IP/GFP IP.

In the case of chain 1 D198A, the response was ~0.63 relative value myc IP/GFP IP.
